Results on 1 molecule are retold here after WO2023191079A1 (dated 2023).

This experiment deals with T1, SpyCatcher-GOx (fusion protein with SpyCatcher and glucose oxidase in this order from the N-terminus).
T1 construct: also called SpyCatcher-fused glucose oxidase; SpyCatcher fusion GOx
Nature of the experiment: 5 uM each mixed, overnight at 4 C, SDS-PAGE.

B1: scFv-ST (anti-CRP scFv antibody with SpyTag added) (scFv)
scFv: HMASQVQLQQSGAELVKPGASVKLSCTASGFNIKDYYMHWVKQRTEQGLEWIGRIDPEDGETKYAPKFQGKATITADTSSNTAYLQLSSLTSEDTAVYYCARGYYGSEAMDYWGQGTSLTVSSGGGGSGGGGSGGGGSTGSIVMTQSHKFMSTSVGDRVSITCKASQDVNTAVAWYQQKPGQSPKLLIYWASTRHTGVPDRFTGSGFGTDYTLTISSVQAEDLALYYCQQHYSTPWTFGGGTKLEIKRADAAPKLAAAGSGAHIVMVDAYKPTKAEQKLISEEDLNLGGGMRGSHHHHHH
Take B1: the binding result is on record as “binds”.
